# Source: patent publication US7220837
# T1: membrane-associated tissue factor (Innovin, Dade), P13726
# T1 chain: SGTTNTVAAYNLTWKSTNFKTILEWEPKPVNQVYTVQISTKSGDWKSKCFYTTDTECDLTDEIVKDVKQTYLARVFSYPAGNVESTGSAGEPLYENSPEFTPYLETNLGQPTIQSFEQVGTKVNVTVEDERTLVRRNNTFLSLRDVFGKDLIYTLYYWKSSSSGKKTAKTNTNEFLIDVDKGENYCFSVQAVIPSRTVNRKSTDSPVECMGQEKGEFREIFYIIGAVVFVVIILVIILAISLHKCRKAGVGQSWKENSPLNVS
# How the values were obtained:
# [1] = target: membrane-associated tissue factor (Innovin, Dade) (UniProt P13726)
# [2] = target: T1, membrane-associated tissue factor …
molecule,measurement,setting,value
Factor VII mutant Q11E33I34F35,activity in the competitive assay of Example 6,[1],displayed similar activity as the Q11E33F34I35 mutant
factor VII mutant Q11E33D36 (protein) ANAFLEELRQGSLERECKEEQCSFEEAREIFEDADRTKLFWISYSDGDQCASSPCQNGGSCKDQLQSYICFCLPAFEGRNCETHKDDQLICVNENGGCEQYCSDHTGTKRSCRCHEGYSLLADGVSCTPTVEYPCGKIPILEKRNASKPQGRIVGGKVCPKGECPWQVLLLVNGAQLCGGTLINTIWVVSAAHCFDKIKNWRNLIAVLGEHDLSEHDGDEQSRRVAQVIIPSTYVPGTTNHDIALLRLHQPVVLTDHVVPLCLPERTFSERTLAFVRFSLVSGWGQLLDRGATALELMVLNVPRLMTQDCLQQSRKVGDSPNITEYMFCAGYSDGSKDSCKGDSGGPHATHYRGTWYLTGIVSWGQGCATVGHFGVYTRVSQYIEWLQKLMRSEPRPGVLLRAPFP,activity in the competitive assay of Example 6,[2],had 70% the activity of the Q11E33 mutant
factor VII F5K (protein) ANAKLEELRPGSLERECKEEQCSFEEAREIFKDAERTKLFWISYSDGDQCASSPCQNGGSCKDQLQSYICFCLPAFEGRNCETHKDDQLICVNENGGCEQYCSDHTGTKRSCRCHEGYSLLADGVSCTPTVEYPCGKIPILEKRNASKPQGRIVGGKVCPKGECPWQVLLLVNGAQLCGGTLINTIWVVSAAHCFDKIKNWRNLIAVLGEHDLSEHDGDEQSRRVAQVIIPSTYVPGTTNHDIALLRLHQPVVLTDHVVPLCLPERTFSERTLAFVRFSLVSGWGQLLDRGATALELMVLNVPRLMTQDCLQQSRKVGDSPNITEYMFCAGYSDGSKDSCKGDSGGPHATHYRGTWYLTGIVSWGQGCATVGHFGVYTRVSQYIEWLQKLMRSEPRPGVLLRAPFP,activity in the competitive assay of Example 6,[2],33% of the activity of wild type factor VII
